Test [1] concerns the target recombinant CsgA-His6 (E. coli) (UniProt P28307).
Test [2] has the same target. Put plainly: thioflavin T fluorescence quantified by confocal microscopy; monomeric CsgA with equimolar LL-37, sLL-37 or VIP and 20 µM ThT, over night at 37°C, washed; fluorescence relative to CsgA alone.

On to human antimicrobial peptide LL-37, for which, in test [1], the curli-mediated biofilm formation of E. coli in microtiter plates (crystal violet), reduction by 2.5 µM LL-37; the pair blocked is CsgA with CsgA (polymerization) was > 80%. The ThT fluorescence of CsgA with the peptide at 1:1, relative to CsgA alone (1 arbitrary unit) (arbitrary units) in test [2] worked out at 0.05.
